From publication PMC5719408, “Multivalent cross-linking of actin filaments and microtubules through the microtubule-associated protein Tau” (Nature Communications, 2017)

Molecular target: NBD-conjugated actin from α-skeletal muscle (F-actin) (UniProt P68135)
Assay: NBD-F-actin fluorescence titration
Details: reference: unphosphorylated Tau(254–284) peptide; sites S262

## Tau (2N4R) 254-284 (from UniProt P10636-8) pS262 Tau(254–284) peptide
  binding against the reference: weaker
